Here are results for two molecules from patent US20090123479A1 (published 2009).

Assay [1] addresses T1, recombinant human IL-23 (human, UniProt Q9NPF7 20-189; P29460 23-328).
T1 construct: also called hIL-23
T1 sequence 1: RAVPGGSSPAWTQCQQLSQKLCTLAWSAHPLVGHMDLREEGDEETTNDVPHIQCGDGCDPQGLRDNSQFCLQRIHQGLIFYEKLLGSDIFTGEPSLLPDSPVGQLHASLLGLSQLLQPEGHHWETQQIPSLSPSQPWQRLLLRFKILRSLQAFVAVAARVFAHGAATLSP
T1 sequence 2: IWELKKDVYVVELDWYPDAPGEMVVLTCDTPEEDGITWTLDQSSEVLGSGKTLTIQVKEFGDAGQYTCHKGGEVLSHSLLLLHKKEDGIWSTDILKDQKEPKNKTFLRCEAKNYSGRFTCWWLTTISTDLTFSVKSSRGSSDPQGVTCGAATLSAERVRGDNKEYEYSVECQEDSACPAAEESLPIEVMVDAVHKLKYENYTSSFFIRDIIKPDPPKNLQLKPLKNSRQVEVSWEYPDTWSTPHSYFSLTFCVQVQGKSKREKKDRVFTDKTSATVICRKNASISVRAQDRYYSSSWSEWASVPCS
Put plainly: SPR (Biacore 3000), purified antibody captured on Protein A or anti-human IgG, IL-23 analyte at 256, 64, 16, 4 nM. The protocol: (§1) Protein A or an anti-human IgG (Biacore BR-1008-39) was immobilised on a Biacore CM5 chip by primary amine coupling in accordance with the manufacturer's instructions. Anti IL-23 antibodies were captured on this surface and after a period of stabilisation, […] was passed over the antibody captured surface and a binding sensorgram was obtained. […] All runs were double referenced with a buffer injection over the captured antibody surface. Data was analysed using the 1:1 model using the software inherent to the Biacore 3000 or T100 depending upon which machine was used to generate kinetics. Analysis was carried out at 25° C. using HBS-EP buffer. Data presented in Tables 3-6 are on tissue culture supernatants of CHO cells transiently expressing the antibody of interest unless otherwise indicated. Data was generated using concentrations of IL-23 (256, 64, 16, 4, 1 and 0.25 nM) The data shown for the humanized variants is representative of a number of runs, The chimeric mAb (8C9H6.HC1LC1) was only run once in each experiment, so data shown for this mAb is from that one run, […]

Assay [2] concerns the target T1, recombinant human IL-23. Put plainly: SPR (Biacore T100), CHO supernatant antibody captured on Protein A or anti-human IgG, IL-23 analyte at 10 concentrations 128-0.25 nM. The method, then:
as §1, with “indicated.” for “indicated. Data was generated using concentrations of IL-23 (256, 64, 16, 4, 1 and 0.25 nM) The data shown for the humanized variants is representative of a number of runs, The chimeric mAb (8C9H6.HC1LC1) was only run once in each experiment, so data shown for this mAb is from that one run,”
In general terms: In SPR one partner is held on a chip, and binding of the other changes the refractive index at the surface.

Assay [3] deals with T1, recombinant human IL-23. The experiment in a line: IL-23/IL-23R inhibition ELISA (first protocol, OD490): plate coated with human IL23R Fc chimera, antibody pre-incubated with constant human IL-23, bound IL-23 detected with biotinylated anti-human IL-12; purified antibody. The method, then:
Chimeric and humanized mAbs were assessed for their ability to neutralise human IL-23 binding to human IL-23 receptor, and cyno IL23 binding to human IL23 receptor. Plates were coated with human IL23R Fc chimera at 1 μg/diluent (bicarbonate buffer). 50 μl/well of this mixture was incubated overnight at 4° C. The plates were then washed twice with Tris Buffered Saline with 0.05% Tween 20 (TBST). Plates were blocked with 1% BSA TBST 100 μl/well for a minimum of 1 hour at room temperature. The plates were then washed twice with Tris Buffered Saline with 0.05% Tween 20 (TBST). Various concentrations of antibody were incubated in a separate plate with a constant concentration of IL-23 for 1 hour at room temperature. 50 ul of each mixture were transferred to the assay plate and incubated at RT for 1 hr. They were then washed twice with Tris Buffered Saline with 0.05% Tween 20 (TBST). Bound IL23 was detected by anti human 1L12 Biotin labelled Ab (R&D systems BAF219) diluted to 100 ng/ml in 1% BSA TBST. 50 μl/well of the biotinylated antibody was added and incubated at RT for 1 hour. The plates were then washed twice with Tris Buffered Saline with 0.05% Tween 20 (TBST). ExtrAvidin-Peroxidase (Sigma E2886) was diluted 1/1000 in 1% BSA TBST, 50 μl/well was added to the plates. […] The plate was read at OD490 nm using the SOftmaxPRO versamax plate reader.
On the technique in general: ELISA stands for enzyme-linked immunosorbent assay.

Assay [4] has as its target T1, recombinant human IL-23. Put plainly: SPR (Biacore T100), CHO supernatant antibody captured on Protein A or anti-human IgG, IL-23 analyte at 256, 64, 16, 4, 1 nM.
In assay [5] the target is T1, recombinant human IL-23. The experiment in a line: SPR (Biacore T100), tissue culture supernatant antibody captured on anti-human IgG, IL-23 analyte. The method, then:
Biacore analysis was carried out using a capture surface on a CM5 chip. Anti-human IgG (BR-1008-39) was used as the capturing agent. Anti-human IgG was coupled to a CM5 biosensor chip by primary amine coupling. Humanized antibody was captured on this immobilised surface and defined concentrations of IL-23 were passed over this captured surface. An injection of buffer over the captured antibody surface was used for double-referencing. […] T100 Biacore machine was used to generate the data; all runs were carried out at 25° C. using HBS EP. Data was analysed using the software inherent to the machine and fitted to the 1:1 model of binding. Tables 7 and 8 detail the IL-23 binding analysis carried out on the 8C92H6.HC1LC1 chimera and selected humanized variants in two separate experiments. […] The data shown for the humanized variants is representative of a number of runs. The chimeric mAb (8C9H6.HC1LC1) was only run once in each experiment, so data shown for this mAb is from that one run.

B1: chimeric 8C92H6 HC1LC1 (antibody, V domains shown)
VH: QVQLQQSGAELARPGTSVKLSCKASGYTFTSYGITWVKQRTGQGLEWIGENYPRSGNTYYNEKFKGKATLTADKSSSTAYMELRSLTSEDSAVYFCARCEFISTVVAPYYYALDYWGQGTSLVTVS
VL: DIVLTQSPASLAVSLGQKATISCKASKKVTIFGSISALHWYQQKPGQPPKLIYNGAKLESGVSARFSDSGSQNRSPFGNQLSFTLTIDPVEADDAATYYCLQNKEVPYTFGGGTKLEIKR
notes: Murine variable regions with human constant regions; also called 8C92H6.HC1LC1 Chimera; 8C9 chimera
Turning to B1, in the assay with recombinant human IL-23 [1], the Kd came out at 1.8 nM, the koff stood at 0.00044 s⁻¹ and the kon stood at 240000 M⁻¹ s⁻¹. For the same molecule, in the assay with recombinant human IL-23 [2], the Kd came out at 0.91 nM, the koff is 0.00029 s⁻¹ and the kon was 320000 M⁻¹ s⁻¹. Further, the “IC50 (read off the curve)” value with recombinant human IL-23 [3] is around 0.08 µg/mL.

B2: A3M0 (antibody, human IgG1, kappa, V domains shown)
VH: QVQLVQSGAEVKKPGSSVKVSCKASGYTFTSYGITWVRQAPGQGLEWMGENYPRSGNTYYNEKFKGRVTITADKSTSTAYMELSSLRSEDTAVYYCARSEFISTVVAPYYYALDYWGQGTLVTVSS
VL: DIVMTQSPDSLAVSLGERATINCKASKKVTIFGSISALHWYQQKPGQPPKLIYNGAKLESGVPDRFSGSGSGTDFTLTISSLQAEDVAVYYCLQNKEVPYTFGGGTKVEIKR
notes: Full length chains; also called humanized mAb A3M0
Take B2: in the assay with recombinant human IL-23 [4], the Kd amounted to 0.92 nM, the koff was 0.00028 s⁻¹ and the kon came to 300000 M⁻¹ s⁻¹. Further, in the assay with recombinant human IL-23 [5], the Kd worked out at 0.17 nM, the koff is 0.000234 s⁻¹ and the kon is 1.38e+06 M⁻¹ s⁻¹.

A word on the Kd: it is the free concentration of one partner at which half of the binding sites on the other are occupied at equilibrium, for simple one-to-one binding. Usually koff stands for the first-order rate constant of dissociation. For orientation: kon means the rate constant with which the complex forms.
